Our source for the Kd values is article doi:10.1101/2025.06.02.656870.

The experiment has as its target chicken IgY (chicken). The experiment is described as follows: BLI; Octet SAX biosensors, as described previously (ref. 10); kinetic 1:1 model, global fits over multiple Fab concentrations.

chicken IgY (chicken), sequence (main, as listed by the source): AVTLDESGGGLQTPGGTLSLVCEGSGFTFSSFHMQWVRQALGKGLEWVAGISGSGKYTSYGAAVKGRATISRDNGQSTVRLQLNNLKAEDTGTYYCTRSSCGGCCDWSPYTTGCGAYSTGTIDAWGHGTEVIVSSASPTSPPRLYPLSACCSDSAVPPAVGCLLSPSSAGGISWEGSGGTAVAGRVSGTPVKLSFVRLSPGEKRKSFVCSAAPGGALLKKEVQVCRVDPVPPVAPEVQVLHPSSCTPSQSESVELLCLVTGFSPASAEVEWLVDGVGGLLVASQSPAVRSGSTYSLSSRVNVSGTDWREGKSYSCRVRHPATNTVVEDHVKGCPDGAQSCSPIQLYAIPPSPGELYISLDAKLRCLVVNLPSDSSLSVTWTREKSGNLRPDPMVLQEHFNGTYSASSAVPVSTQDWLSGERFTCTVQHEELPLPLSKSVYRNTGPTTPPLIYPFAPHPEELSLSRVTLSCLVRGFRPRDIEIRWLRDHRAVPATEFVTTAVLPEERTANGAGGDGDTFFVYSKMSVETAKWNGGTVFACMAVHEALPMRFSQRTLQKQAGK

B1: 2.1^hi Fab (D28HA, K49HR, S64HG, A40LG, Y42LF, A52LS, Q105LH, N108LY) (Fab, V domains shown)
VH: EVQLQESGPSLVKPSQTLSLTCSVTGASITSGYWNWIRKFPGNRLEYMGYISYSGGTYYNPSLKSRISITRDTSKNQYYLQLNSVTTEDTATYYCARDFDVWGAGTTVTVSS
VL: DIVMTQSQKFMSTSVGDRVSVTCKASQNVGTNVGWFQQKPGQSPKSLIYSASYRYSGVPDRFTGSGSGTDFTLTISNVQSEDLAEYFCHQYYSYPLTFGSGTKLEIK
Turning to B1, the Kd came out at 0.062 nM.
